Experimental data taken from the supplement of paper PMC9112550, “Optimization of the antimicrobial peptide Bac7 by deep mutational scanning” (BMC Biology, 2022).

Test system: Escherichia coli TOP10
Experiment: shrunken log2 fold change of peptide-encoding DNA abundance (4.5 h post-induction vs induction); higher = less antimicrobial activity (less host growth inhibition)
Details: time post-induction: 4.5 h; library: site-saturation at positions 5, 18, 19, 20
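Note: peptides expressed intracellularly from a pBAD plasmid library in pooled LB shake-flask culture, induced with 0.3% L-arabinose, DNA abundance read by NGS, three biological replicates, DESeq2 with apeglm shrinkage.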

| Sequence | shrunken log2 fold change |
| --- | --- |
| RRIRHRPPRLPRPRPRPHYHPRP | -0.785 |
| RRIRHRPPRLPRPRPRPICMPRP | -0.00804 |
| RRIRHRPPRLPRPRPRPIECPRP | 0.0039 |
| RRIRHRPPRLPRPRPRPIETPRP | -0.00822 |
| RRIRHRPPRLPRPRPRPIFAPRP | 0.158 |
| RRIRHRPPRLPRPRPRPIFFPRP | 0.0211 |
| RRIRHRPPRLPRPRPRPIFLPRP | -0.572 |
| RRIRHRPPRLPRPRPRPIFQPRP | 0.153 |
| RRIRHRPPRLPRPRPRPIGIPRP | 0.0295 |
| RRIRHRPPRLPRPRPRPIHGPRP | -0.0135 |
| RRIRHRPPRLPRPRPRPIHTPRP | 0.00096 |
| RRIRHRPPRLPRPRPRPIHYPRP | -0.0138 |
| RRIRHRPPRLPRPRPRPIINPRP | -0.324 |
| RRIRHRPPRLPRPRPRPIKAPRP | -0.157 |
| RRIRHRPPRLPRPRPRPIKFPRP | -0.0972 |
| RRIRHRPPRLPRPRPRPILCPRP | -0.182 |
| RRIRHRPPRLPRPRPRPILPPRP | 0.0147 |
| RRIRHRPPRLPRPRPRPIMVPRP | -0.000687 |
| RRIRHRPPRLPRPRPRPIPIPRP | -0.115 |
| RRIRHRPPRLPRPRPRPIPQPRP | -0.126 |
| RRIRHRPPRLPRPRPRPIPTPRP | -0.218 |
| RRIRHRPPRLPRPRPRPIQMPRP | -0.00723 |
| RRIRHRPPRLPRPRPRPIQNPRP | -0.252 |
| RRIRHRPPRLPRPRPRPIQVPRP | 0.000744 |
| RRIRHRPPRLPRPRPRPIQWPRP | -0.01 |

| Sequence | shrunken log2 fold change |
| --- | --- |
| RRIRHRPPRLPRPRPRPISWPRP | -0.245 |
| RRIRHRPPRLPRPRPRPITWPRP | -0.149 |
| RRIRHRPPRLPRPRPRPIVYPRP | -0.452 |
| RRIRHRPPRLPRPRPRPIWNPRP | -0.892 |
| RRIRHRPPRLPRPRPRPKAMPRP | -0.0705 |
| RRIRHRPPRLPRPRPRPKCCPRP | -0.0444 |
| RRIRHRPPRLPRPRPRPKCKPRP | -0.14 |
| RRIRHRPPRLPRPRPRPKCVPRP | -0.069 |
| RRIRHRPPRLPRPRPRPKDAPRP | -0.112 |
| RRIRHRPPRLPRPRPRPKEEPRP | -0.0523 |
| RRIRHRPPRLPRPRPRPKFVPRP | -0.0479 |
| RRIRHRPPRLPRPRPRPKGQPRP | -0.00141 |
| RRIRHRPPRLPRPRPRPKHAPRP | 0.126 |
| RRIRHRPPRLPRPRPRPKHFPRP | 0.451 |
| RRIRHRPPRLPRPRPRPKKDPRP | -0.494 |
| RRIRHRPPRLPRPRPRPKMWPRP | 0.451 |
| RRIRHRPPRLPRPRPRPKNLPRP | 0.133 |
| RRIRHRPPRLPRPRPRPKPCPRP | -0.139 |
| RRIRHRPPRLPRPRPRPKQKPRP | -0.00654 |
| RRIRHRPPRLPRPRPRPKRHPRP | 0.0834 |
| RRIRHRPPRLPRPRPRPKSEPRP | -0.00614 |
| RRIRHRPPRLPRPRPRPKSGPRP | -0.242 |
| RRIRHRPPRLPRPRPRPKSHPRP | 0.77 |
| RRIRHRPPRLPRPRPRPKTCPRP | -0.0999 |
| RRIRHRPPRLPRPRPRPKWKPRP | 0.107 |

| Sequence | shrunken log2 fold change |
| --- | --- |
| RRIRHRPPRLPRPRPRPKYCPRP | -0.000924 |
| RRIRHRPPRLPRPRPRPKYQPRP | -0.145 |
| RRIRHRPPRLPRPRPRPLCWPRP | -0.0222 |
| RRIRHRPPRLPRPRPRPLDRPRP | -0.56 |
| RRIRHRPPRLPRPRPRPLEAPRP | -0.00262 |
| RRIRHRPPRLPRPRPRPLEEPRP | 0.136 |
| RRIRHRPPRLPRPRPRPLEGPRP | 0.0244 |
| RRIRHRPPRLPRPRPRPLEIPRP | -0.0535 |
| RRIRHRPPRLPRPRPRPLFEPRP | -0.135 |
| RRIRHRPPRLPRPRPRPLFLPRP | -0.612 |
| RRIRHRPPRLPRPRPRPLGEPRP | 0.433 |
| RRIRHRPPRLPRPRPRPLHGPRP | 0.00793 |
| RRIRHRPPRLPRPRPRPLHKPRP | -0.294 |
| RRIRHRPPRLPRPRPRPLKNPRP | -0.273 |
| RRIRHRPPRLPRPRPRPLMNPRP | -0.642 |
| RRIRHRPPRLPRPRPRPLMPPRP | -0.107 |
| RRIRHRPPRLPRPRPRPLNAPRP | -0.0576 |
| RRIRHRPPRLPRPRPRPLNKPRP | -0.677 |
| RRIRHRPPRLPRPRPRPLNVPRP | -0.588 |
| RRIRHRPPRLPRPRPRPLQDPRP | -0.0821 |
| RRIRHRPPRLPRPRPRPLQTPRP | 0.139 |
| RRIRHRPPRLPRPRPRPLVVPRP | -0.0489 |
| RRIRHRPPRLPRPRPRPLWKPRP | -0.102 |
| RRIRHRPPRLPRPRPRPLYDPRP | -0.738 |
| RRIRHRPPRLPRPRPRPLYEPRP | -0.211 |
